Consider two molecules from patent US20230037815A1.

The assay concerns the target cynomolgus CD19 (cynomolgus). In words: Octet HTX (ForteBio), IgG on AHC sensor, 1:1 fit. In general terms: Biolayer interferometry detects binding as a change in optical thickness at a sensor tip.

Numbering of substitutions follows the chain as printed.

B1: CNG-CD19-701 (antibody, V domains shown)
VH: QVQLQESGPGLVKPSQTLSLTCTVSGGSISTSTMGVGWIRQHPGKGLEWIGFIWWDDDKRYNPNLKSRVTMSVDTSKNQFSLKLSSVTAADTAVYYCARMELWSYYFDYWGQGTLVTVSS
VL: EIVLTQSPATLSLSPGERATLSCSASSSVGYMHWYQQKPGQAPRLLIYDTSKLASGIPARFSGSGSGTDFTLTISSLEPEDFAVYYCFQGSVYPFTFGQGTKLEIK
Turning to B1, the Kd was 0.668 nM and the koff was 0.000168 s⁻¹.

B2: CNG-CD19-702 (antibody, V domains shown)
VH: B1 VH with I29T, T33G, G37S, F52H, N64V, M71I, Y109P
VL: B1 VL with G30S
Take B2: the Kd came to 1.3 nM and the off-rate constant (koff) was 0.000295 s⁻¹.

One may read the Kd as the equilibrium constant for the complex coming apart. Read a high Kd as lower affinity. As usually defined, the koff is a measure of how fast the partners let go of each other. Higher therefore signals a short-lived complex.
